This is an account of results in US20240117057A1 (CELLDEX THERAPEUTICS, published 2024).

In test [1] the target is T1, human neonatal Fc Receptor (FcRn) (human, UniProt P55899 24-297; P61769 21-119).
T1 construct: Histidine-tagged recombinant receptor captured on anti-Penta-His biosensors; not shown: histidine tag
The experiment in a line: Bio-layer interferometry (Octet QKe), His-tagged FcRn captured on anti-Penta-His biosensors, association and dissociation at pH 6.0; range 500-62.5 nM; fit R2 0.9757. Background: BLI is a label-free optical method that tracks binding on a fibre tip over time.

A further test deals with human KIT (human, UniProt P10721 26-976). The experiment in a line: cell-based or functional assay.
human KIT, sequence (P10721 other isoform, or with tags, fused parts or gaps limits assumed): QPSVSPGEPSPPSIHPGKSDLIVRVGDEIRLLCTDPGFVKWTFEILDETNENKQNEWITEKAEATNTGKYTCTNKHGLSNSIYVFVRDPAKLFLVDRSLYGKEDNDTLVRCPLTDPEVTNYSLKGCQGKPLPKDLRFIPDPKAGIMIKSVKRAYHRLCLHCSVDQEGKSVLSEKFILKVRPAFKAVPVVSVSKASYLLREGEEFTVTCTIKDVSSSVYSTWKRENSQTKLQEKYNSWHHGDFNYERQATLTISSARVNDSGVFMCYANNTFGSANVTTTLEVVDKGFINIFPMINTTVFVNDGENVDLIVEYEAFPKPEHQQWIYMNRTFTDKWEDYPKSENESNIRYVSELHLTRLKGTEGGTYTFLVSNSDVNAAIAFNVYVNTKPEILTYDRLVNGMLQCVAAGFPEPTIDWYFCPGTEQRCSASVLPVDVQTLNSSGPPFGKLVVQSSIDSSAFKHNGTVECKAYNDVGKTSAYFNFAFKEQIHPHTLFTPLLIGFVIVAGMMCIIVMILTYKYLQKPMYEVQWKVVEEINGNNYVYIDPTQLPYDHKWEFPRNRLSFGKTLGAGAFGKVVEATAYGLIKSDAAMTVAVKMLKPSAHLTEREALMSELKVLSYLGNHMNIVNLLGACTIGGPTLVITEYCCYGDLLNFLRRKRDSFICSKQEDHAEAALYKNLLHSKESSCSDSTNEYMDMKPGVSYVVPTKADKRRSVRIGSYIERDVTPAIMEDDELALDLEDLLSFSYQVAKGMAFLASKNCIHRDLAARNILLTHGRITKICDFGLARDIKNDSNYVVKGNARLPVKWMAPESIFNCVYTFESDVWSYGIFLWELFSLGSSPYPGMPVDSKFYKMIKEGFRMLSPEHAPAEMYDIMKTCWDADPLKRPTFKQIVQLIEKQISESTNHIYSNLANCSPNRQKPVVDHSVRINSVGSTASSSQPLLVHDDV
Test [2] concerns the target T2, recombinant human FcγRI (human, UniProt P12314 16-288).
T2 construct: Histidine-tagged recombinant receptor captured on anti-Penta-His biosensors; also called FcgRI; not shown: histidine tag
Description: Bio-layer interferometry (Octet QKe), His-tagged FcγRI captured on anti-Penta-His biosensors; printed as Kdis; range 62.5-7.8 nM; fit R2 0.9955.

Test [3] deals with T3, recombinant human FcγRIIa (human, UniProt P12318 36-218, limits assumed).
T3 construct: Histidine-tagged recombinant receptor captured on anti-Penta-His biosensors; not shown: histidine tag
T3 sequence (looked up): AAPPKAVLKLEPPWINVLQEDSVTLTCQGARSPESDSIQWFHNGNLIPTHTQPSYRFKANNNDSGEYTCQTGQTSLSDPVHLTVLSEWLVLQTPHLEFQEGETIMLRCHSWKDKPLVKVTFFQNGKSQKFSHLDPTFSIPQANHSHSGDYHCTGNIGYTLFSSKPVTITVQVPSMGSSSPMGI
The experiment in a line: Bio-layer interferometry (Octet QKe), His-tagged FcγRIIa captured on anti-Penta-His biosensors; range 500-62.5 nM; fit R2 0.9791.

For test [4], the target named is T4, recombinant human FcγRIIIb (human, UniProt O75015 17-200).
T4 construct: Histidine-tagged recombinant receptor captured on anti-Penta-His biosensors; not shown: histidine tag
T4 sequence (O75015 17-200 limits assumed): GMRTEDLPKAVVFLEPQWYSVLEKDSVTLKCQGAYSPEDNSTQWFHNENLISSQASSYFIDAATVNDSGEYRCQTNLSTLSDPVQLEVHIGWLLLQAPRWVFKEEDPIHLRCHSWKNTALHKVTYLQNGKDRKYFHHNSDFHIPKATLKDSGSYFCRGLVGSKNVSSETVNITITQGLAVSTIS
Description: Bio-layer interferometry (Octet QKe), His-tagged FcγRIIIb captured on anti-Penta-His biosensors; printed as Kdis; range 500-62.5 nM; fit R2 0.9723.

Test [5] has as its target T1, human neonatal Fc Receptor (FcRn). The experiment in a line: Bio-layer interferometry (Octet QKe), His-tagged FcRn captured on anti-Penta-His biosensors, association and dissociation at pH 6.0; printed as Kdis; range 500-62.5 nM; fit R2 0.9757.
Description: (§1) Binding to recombinant human Fc receptors was measured by bio-layer interferometry using an Octet® QKe instrument. […] Curve fitting was performed using the instrument's analysis software. Binding to FcRn was performed with association and dissociation steps at pH 6.0 as well as pH 7.2.
(§2) Binding to the human neonatal Fc Receptor (FcRn) was tested at physiological pH 7.2 as well as at pH 6.0 to simulate endocytic conditions.
Test [6] has as its target T4, recombinant human FcγRIIIb. Description: Bio-layer interferometry (Octet QKe), His-tagged FcγRIIIb captured on anti-Penta-His biosensors; range 500-62.5 nM; fit R2 0.9723.
Description: as §1
For test [7], the target named is T5, recombinant human FcγRIIb (human, UniProt P31994 43-217, limits assumed).
T5 construct: Histidine-tagged recombinant receptor captured on anti-Penta-His biosensors; not shown: histidine tag
T5 sequence (looked up): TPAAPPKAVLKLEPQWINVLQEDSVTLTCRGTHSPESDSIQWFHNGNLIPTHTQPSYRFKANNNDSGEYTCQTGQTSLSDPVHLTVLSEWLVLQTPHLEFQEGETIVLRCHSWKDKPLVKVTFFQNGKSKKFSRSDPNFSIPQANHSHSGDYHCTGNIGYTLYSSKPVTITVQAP
The experiment in a line: Bio-layer interferometry sensorgrams, FcγRIIb on the sensor, serial dilutions of antibody.

Test [8] addresses T6, recombinant human FcγRIIIa (human, UniProt P08637 17-208).
T6 construct: Histidine-tagged recombinant receptor captured on anti-Penta-His biosensors; not shown: histidine tag
The experiment in a line: Bio-layer interferometry (Octet QKe), His-tagged FcγRIIIa captured on anti-Penta-His biosensors; printed as Kdis; range 125-15.6 nM; fit R2 0.9895.

Test [9] has as its target T3, recombinant human FcγRIIa. The experiment in a line: Bio-layer interferometry (Octet QKe), His-tagged FcγRIIa captured on anti-Penta-His biosensors; printed as Kdis; range 500-62.5 nM; fit R2 0.9791.
Description: as §1
Test [10] addresses T6, recombinant human FcγRIIIa. Description: Bio-layer interferometry (Octet QKe), His-tagged FcγRIIIa captured on anti-Penta-His biosensors; range 125-15.6 nM; fit R2 0.9895.
Description: as §1
Test [11] deals with T2, recombinant human FcγRI. Description: Bio-layer interferometry (Octet QKe), His-tagged FcγRI captured on anti-Penta-His biosensors; range 62.5-7.8 nM; fit R2 0.9955.
Description: (§3) Binding to recombinant human Fc receptors was measured by bio-layer interferometry using an Octet® QKe instrument. […] Curve fitting was performed using the instrument's analysis software.
For test [12], the target named is T1, human neonatal Fc Receptor (FcRn). Description: BLI (Octet QKe) at pH 6.0, His-tagged receptor on anti-Penta-His biosensors; pH 6.0 (to simulate endocytic conditions).
Description: as §1, §2
The target of test [13] is T3, recombinant human FcγRIIa. The experiment in a line: BLI (Octet QKe), His-tagged receptor on anti-Penta-His biosensors, antibody in solution.
Description: as §3
Test [14] concerns the target T4, recombinant human FcγRIIIb. The test is described as above.
Description: as §3
In test [15] the target is T6, recombinant human FcγRIIIa. The description is as above.
Description: as §3
For test [16], the target named is T2, recombinant human FcγRI. The test is described as above.
Description: as §3
Test [17] has as its target T1, human neonatal Fc Receptor (FcRn). Description: BLI (Octet QKe) at pH 6.0, His-tagged receptor on anti-Penta-His biosensors.
Description: as §1, §2
Test [18] addresses T5, recombinant human FcγRIIb. Description: Bio-layer interferometry sensorgrams, FcγRIIb on the sensor, serial dilutions of antibody. This is another data set of the same source.
Description: as §3
Test [19] deals with T6, recombinant human FcγRIIIa. Description: Bio-layer interferometry sensorgrams, FcγRIIIa on the sensor, serial dilutions of antibody.
Description: as §3
Test [20] concerns the target T1, human neonatal Fc Receptor (FcRn). Description: Bio-layer interferometry (Octet QKe), His-tagged FcRn captured on anti-Penta-His biosensors, association and dissociation at pH 6.0; printed as Kdis; range 31.25-1.9 nM; fit R2 0.9869.
Description: as §1
Test [21] has the same target. The experiment in a line: Bio-layer interferometry (Octet QKe), His-tagged FcRn captured on anti-Penta-His biosensors, association and dissociation at pH 7.2; range 500-15.6 nM; fit R2 0.9876.
Description: as §1
Test [22] has the same target. Description: BLI (Octet QKe) at pH 7.2, His-tagged receptor on anti-Penta-His biosensors.
Description: as §1, §2
Test [23] has as its target T4, recombinant human FcγRIIIb. The experiment in a line: Bio-layer interferometry sensorgrams, FcγRIIIb on the sensor, serial dilutions of antibody.
Description: as §1
Test [24] concerns the target T1, human neonatal Fc Receptor (FcRn). The experiment in a line: Bio-layer interferometry (Octet QKe), His-tagged FcRn captured on anti-Penta-His biosensors, association and dissociation at pH 6.0; range 31.25-1.9 nM; fit R2 0.9869.
Description: as §1, §2
The target of test [25] is T3, recombinant human FcγRIIa. The experiment in a line: Bio-layer interferometry (Octet QKe), His-tagged FcγRIIa captured on anti-Penta-His biosensors.
Description: as §3
The target of test [26] is T2, recombinant human FcγRI. The experiment in a line: Bio-layer interferometry (Octet QKe), His-tagged FcγRI captured on anti-Penta-His biosensors.
Description: as §1
Test [27] addresses T1, human neonatal Fc Receptor (FcRn). Description: Bio-layer interferometry (Octet QKe), His-tagged FcRn captured on anti-Penta-His biosensors, association and dissociation at pH 7.2; printed as Kdis; range 500-15.6 nM; fit R2 0.9876.
Description: as §1, §2

Like-named read-outs stand apart in the source and are kept apart here.

T6 sequence (P08637 17-208 limits assumed): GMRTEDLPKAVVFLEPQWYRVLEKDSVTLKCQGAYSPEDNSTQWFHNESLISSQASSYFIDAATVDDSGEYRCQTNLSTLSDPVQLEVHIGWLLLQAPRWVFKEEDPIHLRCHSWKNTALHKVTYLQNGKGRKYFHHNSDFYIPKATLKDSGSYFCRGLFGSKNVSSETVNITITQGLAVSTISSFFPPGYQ
T2 sequence (P12314 16-288 limits assumed): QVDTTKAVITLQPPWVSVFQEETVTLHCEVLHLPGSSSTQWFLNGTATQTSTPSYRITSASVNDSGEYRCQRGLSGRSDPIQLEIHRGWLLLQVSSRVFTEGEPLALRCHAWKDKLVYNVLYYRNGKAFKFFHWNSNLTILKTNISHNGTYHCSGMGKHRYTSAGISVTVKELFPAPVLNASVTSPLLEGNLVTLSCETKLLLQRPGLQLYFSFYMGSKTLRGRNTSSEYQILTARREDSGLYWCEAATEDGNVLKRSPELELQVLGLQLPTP
T1 sequence (P55899 24-297 limits assumed, chain 1 of 2): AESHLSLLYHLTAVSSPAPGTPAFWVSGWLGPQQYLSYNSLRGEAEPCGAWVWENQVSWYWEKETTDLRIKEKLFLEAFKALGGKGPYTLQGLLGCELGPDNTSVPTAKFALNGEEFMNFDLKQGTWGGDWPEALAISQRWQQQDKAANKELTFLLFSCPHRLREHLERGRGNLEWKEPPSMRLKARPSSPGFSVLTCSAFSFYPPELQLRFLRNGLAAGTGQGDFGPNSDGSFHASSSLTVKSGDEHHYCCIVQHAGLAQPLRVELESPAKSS
T1 sequence (P61769 21-119 limits assumed, chain 2 of 2): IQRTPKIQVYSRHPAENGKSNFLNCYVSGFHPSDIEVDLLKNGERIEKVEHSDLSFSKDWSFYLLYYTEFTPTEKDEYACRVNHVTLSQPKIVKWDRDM

B1: mAbc (antibody, human IgG1, kappa)
heavy: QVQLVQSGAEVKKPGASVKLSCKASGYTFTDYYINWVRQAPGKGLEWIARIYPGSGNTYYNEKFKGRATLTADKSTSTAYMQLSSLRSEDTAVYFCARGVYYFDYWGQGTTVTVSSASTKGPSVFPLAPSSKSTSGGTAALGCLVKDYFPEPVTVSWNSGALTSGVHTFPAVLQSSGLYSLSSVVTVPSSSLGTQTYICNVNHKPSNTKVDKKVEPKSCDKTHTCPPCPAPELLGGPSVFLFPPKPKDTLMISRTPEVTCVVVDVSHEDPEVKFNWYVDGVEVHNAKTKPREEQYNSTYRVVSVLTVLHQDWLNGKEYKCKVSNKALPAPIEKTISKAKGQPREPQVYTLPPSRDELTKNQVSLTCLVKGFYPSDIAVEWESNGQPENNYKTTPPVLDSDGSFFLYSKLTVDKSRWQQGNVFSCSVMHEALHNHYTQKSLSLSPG
light: DIVMTQSPSSLSASVGDRVTITCKASQNVRTNVAWYQQKPGKAPKALIYSASYRYSGVPDRFTGSGSGTDFTLTISSLQPEDFADYFCQQYNSYPRTFGGGTKVEIKRTVAAPSVFIFPPSDEQLKSGTASVVCLLNNFYPREAKVQWKVDNALQSGNSQESVTEQDSKDSTYSLSSTLTLSKADYEKHKVYACEVTHQGLSSPVTKSFNRGEC
notes: Positions are EU numbers; also called corresponding antibody with a wild-type (unmutated) IgG1 Fc domain; copies: 2 + 2
For orientation: kon means a measure of how fast the partners come together. Usually koff stands for the rate constant with which the complex falls apart. Usually Kd stands for the concentration at which binding is half-saturated. For the molecule B1, the kon turned out to be 141000 M⁻¹ s⁻¹ in test [1]; 358000 M⁻¹ s⁻¹ in test [3]; 152000 M⁻¹ s⁻¹ in [6]; 128000 M⁻¹ s⁻¹ in test [10]; 522000 M⁻¹ s⁻¹ in the test with recombinant human FcγRI [11]. Also, the “IC50, inhibition of SCF-dependent M-07e cell proliferation” value in the test with human KIT came to 1.12 nM. For the same molecule, the koff with recombinant human FcγRI [2] amounted to 0.00177 s⁻¹; in test [4], 0.124 s⁻¹; in [5], 0.0296 s⁻¹; in [8] it was 0.0162 s⁻¹; in test [9] it was 0.14 s⁻¹. For the same molecule, in [7], the binding result is given as “no binding (tested: 500 nM (range given in FIG. 7))”. Further, the Kd in [12] is 211 nM; in [13] it was 391 nM; in test [14], 816 nM; in test [15], 127 nM; with recombinant human FcγRI [16] it was 3.39 nM.

B2: mAb1 (antibody, human IgG1, kappa)
heavy: QVQLVQSGAEVKKPGASVKLSCKASGYTFTDYYINWVRQAPGKGLEWIARIYPGSGNTYYNEKFKGRATLTADKSTSTAYMQLSSLRSEDTAVYFCARGVYYFDYWGQGTTVTVSSASTKGPSVFPLAPSSKSTSGGTAALGCLVKDYFPEPVTVSWNSGALTSGVHTFPAVLQSSGLYSLSSVVTVPSSSLGTQTYICNVNHKPSNTKVDKKVEPKSCDKTHTCPPCPAPEAQGGPSVFLFPPKPKDTLYITREPEVTCVVVDVSHEDPEVKFNWYVDGVEVHNAKTKPREEQYNSTYRVVSVLTVLHQDWLNGKEYKCQVSNKALPAPIEKTISKAKGQPREPQVYTLPPSRDELTKNQVSLTCLVKGFYPSDIAVEWESNGQPENNYKTTPPVLDSDGSFFLYSKLTVDKSRWQQGNVFSCSVMHEALHNHYTQKSLSLSPG
light: B1 light
notes: Humanized anti-human KIT IgG1 with mutated Fc, expressed in CHO cells; also called antibody mAb 1; anti-KIT antibody; copies: 2 + 2
Consider B2, for which the Kd in test [17] was determined as 0.38 nM; in test [22], 77.1 nM; in [24], 0.383 nM. Also, the “IC50, inhibition of SCF-dependent M-07e cell proliferation” value with human KIT came to 1.11 nM. In addition, the binding result was “no binding (tested: 500 nM (range given in FIG. 7))” in test [18]; “no binding (tested: 500 nM (range given in FIG. 7))” in test [19]; “no binding (tested: 500 nM (range given in FIG. 7))” in test [23]; “no binding (tested: 500 nM)” in test [25]; “no binding (tested: 500 nM)” with recombinant human FcγRI [26]. Besides, the koff was 0.000765 s⁻¹ in test [20] and 0.0807 s⁻¹ in test [27]. The kon in test [21] turned out to be 1.05e+06 M⁻¹ s⁻¹; in [24] it was 2e+06 M⁻¹ s⁻¹.
